Key:
Type in all cases: biochemical
pUC19 plasmid DNA [1] = assay: Thermal inactivation of PPR enzymatic activity in the presence of DTT, plasmid DNA degradation on agarose gel; details: incubation for 15 minutes in the presence of 1-5 mM DTT
Protocol: FIG. 5—showing PPR inactivation in various temperature conditions in the presence of 5 mM DTT. Complete PPR inactivation is obtained at 52° C.
(§1) In order to determine PPR nuclease nucleolytic activity serial dilutions of the enzyme are incubated in a reaction buffer containing 20 mM Tris-HCl (pH 8.0), 20 mM MgCb and 1 pg pUC19 plasmid DNA of 20 m ? volume for 10 min. The reaction is stopped by adding 5 m ? 25 mM DTT solution to a final concentration of 5 mM and the sample is heated to 55° C. for 10 min. As a control, 1 pg of pUC19 plasmid DNA is incubated without the addition of nuclease. Subsequently, the samples are loaded onto a 1% agarose gel and DNA separation is performed in gel at 130 voltage for 40 min. The remaining, nondegraded DNA in gel is stained with ethidium bromide and documented by taking a photography of the gel. 1 U activity is determined as the enzyme quantity essential for total degradation of 1 pg of pUC19 plasmid DNA in 10 min. at 37° C.
To determine the parameters of PPR nuclease inactivation series of 0.2 ml test probes for PCR are prepared containing 100 U PPR in a 50 m ? reaction buffer containing 5 mM DTT, as described in Example 4A, excluding pUCIO plasmid DNA. Afterwards, the probes are incubated for 15 minutes at relevant temperatures and then for 5 minutes on ice. […] The degree of plasmid DNA degradation in the trials is analyzed on an agarose gel.

[2] = system: herring sperm genomic DNA; assay: Nucleolytic (specific) activity of PPR nuclease, modified Kunitz's test: effect of pH, temperature and Mg2+
Protocol: FIG. 2—showing pH influence on PPR nucleolytic activity depending on NaCl salt concentration. Measurement using modificated Kunitz's test, conditions: 20 mM MgCh, temperature of 22° C.
FIG. 3—showing temperature and high salts (500 mM NaCl+100 mM MgCL) influence on PPR nucleolytic activity. Measurement using modificated Kunitz's test.
FIG. 4—showing influence of Mg^2, ions on PPR nucleolytic activity in selected pH and temperature conditions. Maximum PPR activity is obtained at 50-150 mM concentration at 37° C. in a pH 8.0 buffer.
(§2) In order to determine PPR nuclease specific activity serial dilutions of the enzyme are incubated in a reaction buffer containing 20 mM Tris-HCl (pH 8.0), 20 mM MgCh and 100 pg of herring sperm genomic DNA of 300 m ? volume at 37° C. for 30 min. The reaction is stopped by adding 300 m ? 4% solution of perchloric acid to 2% final concentration and sample incubation on ice for 60 min. As a control, 100 pg DNA is incubated without the addition of nuclease. Afterwards, the samples are centrifuged for 10 minutes until separation of the precipitate of non-degraded DNA. The content of free nucleotides and oligonucleotide fragments smaller than 10 bp is determined in supernatant by measuring absorbance at 260 nm wavelength. 1 U nuclease activity is determined as enzyme quantity causing increase of absorbance in the studied sample at 260 nm wavelength of 1.0 within 30 minutes of reaction at 37° C.
In order to determine optimal pH for enzyme nucleolytic activity reaction is conducted as described in Example 4. The solutions of pH 6.0-10.0 with 1 U enzyme in reaction mixtures containing 0, 250, 500 mM NaCl, respectively.
The determination of the optimal temperature for enzyme nucleolytic activity reaction is performed as described in Example 4 at various temperatures from 6° C. to 45° C. with 1 U enzyme in the reaction mixture containing 50 mM Tris, pH 8.0 and variable concentrations of MgCh (5 mM and 100 mM). […] It needs to be highlighted that in these conditions 100% of standard activity may be obtained in refrigerated conditions at 6° C., by applying the relevant salt concentration: NaCl (500 mM) and MgCh (100 mM).
To determine the effects of Mg^2+ ion concentration on PPR nucleolytic activity reaction is performed as described in Example 4 in solutions of varied content of Mg^2+ ions; 5 mM to 200 mM with 1 U enzyme in the reaction mixture. […] In all observed ranges of MgCh (5-200 mM) PPR concentrations show high specific activity.

[3] = system: herring sperm genomic DNA; assay: Nucleolytic activity of PPR, HL-SAN, Benzonase nucleases in PBS and TBS buffers; details: PBS, TBS and TBS with 500 mM NaCl; 6° C., 22° C. and 37° C.
Protocol: FIG. 8—showing the comparison of values of the PPR, HL-SAN and Benzonase® nucleases' nucleolytic activities in buffers with similar physiological salt concentration (PBS and TBS) with the addition of 500 mM NaCl, commonly used in the methodology of recombinant protein purification.
(§3) In order to determine PPR nuclease specific activity serial dilutions of the enzyme are incubated in a reaction buffer containing 20 mM Tris-HCl (pH 8.0), 20 mM MgCh and 100 pg of herring sperm genomic DNA of 300 m ? volume at 37° C. for 30 min. The reaction is stopped by adding 300 m ? 4% solution of perchloric acid to 2% final concentration and sample incubation on ice for 60 min. As a control, 100 pg DNA is incubated without the addition of nuclease. Afterwards, the samples are centrifuged for 10 minutes until separation of the precipitate of non-degraded DNA. The content of free nucleotides and oligonucleotide fragments smaller than 10 bp is determined in supernatant by measuring absorbance at 260 nm wavelength. 1 U nuclease activity is determined as enzyme quantity causing increase of absorbance in the studied sample at 260 nm wavelength of 1.0 within 30 minutes of reaction at 37° C. […]

[4] = system: herring sperm genomic DNA; assay: Nucleolytic activity of PPR, HL-SAN, Benzonase nucleases in buffers of varied salt concentration and pH
Protocol: FIG. 6—showing the comparison of nucleolytic activity values of PPR, HL-SAN and Benzonase® nucleases in buffers of various NaCl concentrations (0, 250, 500 mM), in pH 7.0, 8.0, 9.0, respectively. The remaining reaction conditions are as follows: temperature 22° C., 50 mM Tris, 20 mM MgCk (5 mM MgCk used for Benzonase®). […] The advantage of PPR over the HL-SAN nuclease, whose characteristics are the most similar, increases in correlation with decreasing pH (7.0-8.0).
as §3

pUC19 plasmid DNA [5] = assay: Effects of potential inhibitors (salts, urea, imidazole) on PPR nucleolytic activity
Protocol: as §1, §2
To determine the scope of enzyme tolerance to popular ion components used in the preparation of recombinant proteins, present in the reaction buffer, a nucleolytic reaction is performed as described in Example 4 in solutions of various amounts of individual potential inhibitors: NaCl, urea, ammonium sulphate, imidazole. The PPR nuclease retains high nucleolytic activity in the presence of increased concentrations of tested substances, as shown in Table 1.

[6] = system: herring sperm genomic DNA; assay: Nucleolytic activity of PPR, HL-SAN, Benzonase nucleases in DMEM medium
Protocol: FIG. 7—showing the comparison of values of the PPR, HL-SAN and Benzonase® nucleases' nucleolytic activities in DMEM medium, commonly used for mammalian in vitro cell culture, in which recombinant proteins, virus vectors and other biological therapeutics are produced.
as §2
Determination of the nucleolytic activity of PPR, HL-SAN and Benzonase® nucleases are performed as described in Example 4 at various temperatures: 6° C., 22° C. and 37° C. but instead of a reaction buffer DMEM medium (commonly used in cultures of mammalian cells, e.g. CHO, HEK, for the production of recombinant proteins and virus vectors) is used. […] At 37° C. […] The activity for every enzyme in conditions recommended by the manufacturer was assumed as 100% activity.

B1: PPR nuclease: non-specific nuclease that is the subject matter of the invention of SEQ ID NO: 2; thermolabile, recombinant, produced in E. coli (protein)
chain: MKYLLPTAAAGLLLLAAQPAMAASMEHHHHHHGSENLYFQSAPPSSFSKAKRLAVEIYQDHPTSFYCGCAITWQGKKGLPDLASCGYEVRKQEKRANRIEWEHVVPAENFGRAFVEWREGHPQCVNSKGKAYKGRSCATKMNPTYRSMQADLHNLTPAVGEVNGDRSNYAFLPWNGNNGAFYGQCDMKIDFKNRRADPPEQSRGAIARTYLYMNQEYKMALSSQQRQLMEAWNRQYPISTWECERDRRIANIQDNHNSFVLQACKKAGY
temperature of irreversible inactivation (pUC19 plasmid DNA [1]): 52 °C
pH of highest nucleolytic activity ([2]; 500 mM NaCl, tested pH 6.0-10.0 at 0, 250, 500 mM NaCl, 20 mM MgCl2, 22° C., 1 U enzyme): 8.0
nucleolytic activity over tested temperature range ([2]; 6° C. to 45° C., 50 mM Tris, pH 8.0): maintains nucleolytic activity in the whole range of the tested temperatures
MgCl2 concentration range with high specific activity / enzyme active ([2]; MgCl2): 5 to 200 mM
temperature of highest nucleolytic activity ([2]; NaCl (500 mM) and MgCl2 (100 mM), 50 mM Tris, pH 8.0, tested 6° C. to 45° C.): 37 °C
Mg2+ concentration of highest nucleolytic activity ([2]; pH 6.5): 20 mM
optimum Mg2+ concentration range for nucleolytic activity ([2]; pH 6.5 buffer, ambient temperature (22° C.)): 20 to 50 mM
Mg2+ concentration of highest nucleolytic activity ([2]; pH 8.0): 150 mM
optimum Mg2+ concentration range for nucleolytic activity ([2]; pH 8.0 buffer, 37° C.): 50 to 150 mM
nucleolytic activity relative to standard activity ([2]; refrigerated conditions at 6° C., NaCl (500 mM) and MgCl2 (100 mM)): 100 % of standard activity
nucleolytic activity compared with the other tested enzymes [3]: highest nucleolytic activity of all tested enzymes
nucleolytic activity compared with the other tested nucleases ([4]; 250 and 500 mM NaCl, pH 7.0, 8.0 and 9.0, 22° C., 50 mM Tris, 20 mM MgCl2): highest nucleolytic activity of all tested nucleases
nucleolytic activity compared with HL-SAN and Benzonase ([4]; lower pH (7.0, 8.0) and ambient temperature (22° C.)): significantly more active
Non-inhibiting concentration (pUC19 plasmid DNA [5]; Ammonium sulphate): 0 to 200 mM
Non-inhibiting concentration (pUC19 plasmid DNA [5]; Imidazole): 0 to 400 mM
Non-inhibiting concentration (pUC19 plasmid DNA [5]; NaCl/KCl): 0 to 1400 mM
Non-inhibiting concentration (pUC19 plasmid DNA [5]; Urea): 0 to 6000 mM
nucleolytic activity relative to Benzonase nuclease ([6]; 37° C.): six times more active
nucleolytic activity compared with the other tested enzymes ([6]; all tested temperatures (6° C., 22° C., 37° C.)): highest nucleolytic activity of all tested enzymes
nucleolytic activity relative to HL-SAN and Benzonase ([6]; refrigerated conditions (6° C.) and ambient temperature (22° C.)): approx three times more active

Reference: patent US20230287369A1, “A NEW, NON-SPECIFIC THERMOLABILE NUCLEASE ACTIVE AT LOW TEMPERATURE, IN WIDE PH RANGE AND HIGH CONCENTRATION IN SALTS” (Blirt S.A., priority 2019, published 2023)
